Test results reported in patent US9404925B2, “Cancer antigen and use thereof” (MEDINET CO., LTD., priority 2002, dated 2016).

Key:
Colon-26 = experiment: In vivo antitumor activity of mouse Th induced by hsp105, local injection into Colon-26 tumor; design: species or system BALB/c mouse; settings: tumor with a size of 3 mm, FIG. 6D
Procedure: (§1) The spleen of a BALB/c mouse was collected and ground to separate spleen cells. 200,000 spleen cells per well on a 96-well flat plate were cultured in 200 μl of a culture solution containing IL-2 (100 IU/ml) and a 2 μg/ml recombinant hsp105 protein for 1 week. Thereafter, every week, the culture product was repeatedly stimulated with 200,000 spleen cells, which had been pulsed with a 2 μg/ml recombinant hsp105 protein and then exposed to radioactive rays, so as to establish multiple CD4 positive helper T cell lines (Th). The expression of CD4 and CD8 on the surface of cells was confirmed by performing immunofluorescent staining with Monoclonal Antibody MOUSE CD4-FITC, CD8-FITC (IMMUNOTECH, Marseille, France), and then analyzed with FACS (FIG. 6A). It was examined by the intake of [^3H] thymidine, whether or not Th specifically reacts with the hsp105 protein and grows. Specifically, 150,000 spleen cells were placed in each well of a 96-well flat plate, and several wells were pulsed with the hsp105 protein overnight, and the other wells were not pulsed therewith. […] Thereafter, the intake of [^3H] thymidine was measured with a liquid scintillation counter. […] Thus, IFN-γ and IL-4 secreted from Th as a result of the reaction were measured with Mouse IFN-γ, IL-4 ELISA Ready-SET-Go! […]

[1] = system: CD4 positive helper T cell lines (Th); experiment: [3H] thymidine intake of CD4 positive helper T cell line of colon cancer patient induced by hsp105; type: cell-based, human; settings: FIG. 7A
Procedure: as §1, with “6A).” for “6A). It was examined by the intake of [^3H] thymidine, whether or not Th specifically reacts with the hsp105 protein and grows. Specifically, 150,000 spleen cells were placed in each well of a 96-well flat plate, and several wells were pulsed with the hsp105 protein overnight, and the other wells were not pulsed therewith.”
(§2) Monocytes were separated from the peripheral blood. […] The expression of CD4 and CD8 on the surface of cells was confirmed by performing immunofluorescent staining using Pharmingen anti-human CD4, CD8-FITC, and then analyzed with FACS. […] In addition, in the same manner as in Example 7, IFN-γ and IL-4 secreted from Th as a result of the reaction were measured using Human IFN-γ, IL-4 US ELISA Kit (BIOSOURCE, Camarillo, Calif.). […]

[2] = system: CD4 positive helper T cell lines (Th); experiment: [3H] thymidine intake of mouse CD4 positive helper T cell line induced by hsp105; type: cell-based, BALB/c mouse; settings: spleen cells pulsed with hsp105 protein, 72 hours, FIG. 6B
Procedure: as §1

[3] = system: CD4 positive helper T cell lines (Th); experiment: IFN-γ and IL-4 ELISA of mouse Th induced by hsp105; type: cell-based, BALB/c mouse; settings: supernatant 24 hours after addition of Th, FIG. 6C
Procedure: as §1

[4] = system: CD4 positive helper T cell lines (Th); experiment: IFN-γ and IL-4 ELISA of colon cancer patient Th induced by hsp105; type: cell-based, human; settings: FIG. 7B
Procedure: as §1, with “6A).” for “6A). It was examined by the intake of [^3H] thymidine, whether or not Th specifically reacts with the hsp105 protein and grows. Specifically, 150,000 spleen cells were placed in each well of a 96-well flat plate, and several wells were pulsed with the hsp105 protein overnight, and the other wells were not pulsed therewith.”
as §2

B1: hsp105 protein: recombinant hsp105 protein, heat shock protein cancer antigen (SEQ ID NO: 1), used to induce CD4 positive helper T cell lines (protein, listed as Homo sapiens)
chain: MSVVGLDVGSQSCYIAVARAGGIETIANEFSDRCTPSVISFGSKNRTIGVAAKNQQITHANNTVSNFKRFHGRAFNDPFIQKEKENLSYDLVPLKNGGVGIKVMYMGEEHLFSVEQITAMLLTKLKETAENSLKKPVTDCVISVPSFFTDAERRSVLDAAQIVGLNCLRLMNDMTAVALNYGIYKQDLPSLDEKPRIVVFVDMGHSAFQVSACAFNKGKLKVLGTAFDPFLGGKNFDEKLVEHFCAEFKTKYKLDAKSKIRALLRLYQECEKLKKLMSSNSTDLPLNIECFMNDKDVSGKMNRSQFEELCAELLQKIEVPLYSLLEQTHLKVEDVSAVEIVGGATRIPAVKERIAKFFGKDISTTLNADEAVARGCALQCAILSPAFKVREFSVTDAVPFPISLIWNHDSEDTEGVHEVFSRNHAAPFSKVLTFLRRGPFELEAFYSDPQGVPYPEAKIGRFVVQNVSAQKDGEKSRVKVKVRVNTHGIFTISTASMVEKVPTEENEMSSEADMECLNQRPPENPDTDKNVQQDNSEAGTQPQVQTDAQQTSQSPPSPELTSEENKIPDADKANEKKVDQPPEAKKPKIKVVNVELPIEANLVWQLGKDLLNMYIETEGKMIMQDKLEKERNDAKNAVEEYVYEFRDKLCGPYEKFICEQDHQNFLRLLTETEDWLYEEGEDQAKQAYVDKLEELMKIGTPVKVRFQEAEERPKMFEELGQRLQHYAKIAADFRNKDEKYNHIDESEMKKVEKSVNEVMEWMNNVMNAQAKKSLDQDPVVRAQEIKTKIKELNNTCEPVVTQPKPKIESPKLERTPNGPNIDKKEEDLEDKNNFGAEPPHQNGECYPNEKNSVNMDLD
growth of Colon-26 tumor after local injection of Th (Colon-26): clearly retarded
hsp105 protein-specific growth of Th ([3H] thymidine intake) [1]: specifically reacted with the hsp105 protein and grew
hsp105 protein-specific growth of Th ([3H] thymidine intake) [2]: specifically reacted with the hsp105 protein and grew
IFN-γ and IL-4 secreted from Th [3]: generates a large amount of IFN-γ
IFN-γ and IL-4 secreted from Th [4]: generates a large amount of IFN-γ
